Tests used:
Type in all cases: biochemical
[1] = Plate assay of crude cell lysate, second round of active site optimization; details: Combinatorial Mutation Results; 4 colonies/Kunkel assayed
Protocol: Since it was unreasonable to prepare the 176 enzyme variants in large scale, a plate assay was developed in which colonies directly from a Kunkel mutagenesis (8) reaction could be screened. Kunkel mutagenesis reactions were transformed directly into BL21(DE3)™ (Invitrogen) in order to generate each of the desired mutants. Four colonies from each plated reaction was picked and grown at 37° C. in 0.5 mL of LB-Kanamycin overnight. […]. This culture was grown for 2-3 hours at 37° C., after which 50 μL of 10 mM IPTG was added to each well (0.5 mM Final) in order to induce expression. The cells were then grown for 24 hours at 18° C., harvested, and stored at −20° C. until ready for assaying. To assay, crude cell lysate was prepared by resuspending the cells in 500 uL of PBS and lysing through 3 freeze/thaw cycles (15 minutes at −80° C., 40 minutes at 25° C.), followed by centrifugation at 4000 rpm for 30 minutes. […] Samples from each reaction were then quenched and product detected using a liquid chromatography-tandem mass spectroscopy.
To help remove some of this noise, samples showing WT activity were discarded if at least 2 of the other colonies picked from that Kunkel reaction did show an effect on activity (either greater or less than WT). […] The relative effect of each mutation was calculated. […]

[2] = Kinetic characterization: reaction velocity versus diene and dienophile concentration
Protocol: (A) Dependence of reaction velocity on diene concentration for different fixed dienophile concentrations. The diene concentration was varied from 3.0 to 0.18 mM with a fixed concentration of 100 mM (⋄), 66 mM (Δ), 44 mM (⋄), 30 mM (◯), 20 mM (◯), or 13 mM (●) dienophile (B) Dependence of reaction velocity on dienophile concentration for different fixed diene concentrations. The dienophile was varied from 100 to 13.0 mM with a fixed concentration of 3 mM (♦), 2 mM (▴), 1.3 mM (∇), 0.9 mM (Δ), 0.6 mM (⋄), 0.4 mM (□), 0.26 mM (◯), or 0.18 mM (●) […]. Reactions were carried out with 20 μM protein in PBS at 298 K.
The kinetics of the DA—20—10 catalyzed reaction was characterized by measuring the dependence of the reaction velocity on the concentration of both diene and dienophile. The effective molarity (kcat/kuncat) of DA—20—10 is 100 M, and the rate enhancement (kcat/(kuncat*KM_diene)) in the presence of saturating dienophile and limiting diene is 1.0×10^5. At high substrate concentrations DA—20—10 proceeds for more than 30 turnovers before the enzyme loses activity. At higher enzyme concentrations more than 80% of the diene substrate is converted to product.
The errors represent the calculated 95% confidence interval. The parameter a describes the cooperativity of binding between the two substrates: a value greater than one indicates negative cooperativity, whereas a value lower then one indicates positive cooperativity. α could not be determined for DA—20—00. Kinetic parameters for catalytic antibodies 7D4 and 4D5 were taken from (10, 17).

Turnover number = details: high substrate concentrations: 3 mM diene, 100 mM dienophile, 25 μM enzyme, PBS, 298K
Protocol: The reaction was carried out in 3 mM diene, 100 mM dienophile, 25 μM enzyme, in PBS at 298K. Turnover number was calculated by subtracting the product formed in the background reaction from the product formed in the enzymatic reaction. This enzyme-produced product was then divided by the protein concentration to determine turnover number.
To quantify the number of turnovers reached before the DA—20—10 was inactivated, a reaction was setup with 25 μM enzyme, 3 mM diene, 100 mM dienophile in a PBS solution and incubated for 160 hours. Time points were taken, quenched, and filtered, and then analyzed using the liquid chromatography mass-spectroscopy assay. A standard curve ranging from 4 mM to 0.03 mM was used to quantify the amount of product produced.

[3] = Substrate specificity, LC-MS of product peak area formed per hour; details: 0.2 mM diene, 10 mM dienophile, 60 μM protein, PBS, 298K
Protocol: FIG. 19 illustrates the substrate specificity of DA—20—10 and a single mutant of DA—20—10, H287N. Reactions were carried out with 0.2 mM diene 1 (FIG. 1), and 10 mM of one of the six dienophiles depicted in PBS at 298K in the absence or presence of 60 μM DA—20—10 or DA—20—10_H287N. The depicted values in the figure are the mean (bars) and standard deviation (error bars) of four independent measurements of the product peak area (arbitrary units) formed per hour, determined using a liquid chromatography-mass spectroscopy assay.
To experimentally determine substrate specificities each dienophile from FIG. 19 was either purchased or synthesized. The dienophiles were assayed in the presence or absence of 60 μM DA—20—10 or the H287N mutant over 30 hours with 10 mM dienophile and 0.2 mM diene at 298K in a PBS solution. A sample of the reaction was taken at four different time points, quenched, and filtered as previously described. To detect product a liquid chromatography-mass spectroscopy assay was used. […] The average area of each detected peak formed per hour was used to determine the relative amount of product formed with and without enzyme.
Besides stereoselectivity, the level of control over a chemical reaction by a designed enzyme is reflected by its substrate specificity. […] The activity against each of the substrates was measured using a liquid-chromatography mass spectroscopy assay.

B1: DA_20_10: DA_20_04 with A272N, Q149R, A173C (protein)
chain: MEIPVIEPLFTKVTEDIPGATGPVFDKNGDFYIVAPYVEVNGKPAGEILRIDLKTGKKTVICKPEVNGYGGIPIGCQCDRDANQLFVADMRLGLLVVQTDGTFEEIAKKDSEGRRMQGCAYCAFDYEGNLWITAPAGEVAPADFTISLREKFGSIYCFTTDGQMIQVDTAFQCPAGIAVRHMNDGRPYQLIVAEQPTKKLWSYDIKGPAKIENKKVWGHIPGTHKGGAAGMDFDEDNNLLVANWGSSHIEVFGPDGGQPKMRIRCPFEKPANLHFKPQTKTIFVTEHENNAVWKFEWQRNGKKQYCETLKFGIFGSLEHHHHHH
modifications: Enzyme catalyst for Diels-Alder reaction
notes: DA_20_04 with A272N, Q149R, A173C
- Relative Effect on Activity [1]: 7.96
- increase in overall catalytic efficiency over the original design model DA_20_00 [2]: roughly 2200 fold
- kcat relative to those of 7D4 and 4D5 ([2]; DA_20_10 at 298K, antibodies at 310K): 10 fold
- rate enhancement (kcat/(kuncat*KM_diene)) relative to either antibody ([2]; saturating dienophile and limiting diene, versus 7D4 and 4D5): 20 fold
- effective molarity (kcat/kuncat) relative to either antibody ([2]; versus 7D4 and 4D5): 20 fold
- turnovers before the enzyme loses activity (Turnover number): more than 30 turnovers
- substrate specificity (in words) [3]: highly favor the substrate for which it was designed

From patent US8688427B2, “Enzyme catalysts for diels-alder reactions” (University of Washington, priority 2008, dated 2014)
